According to patent US20150260731A1 (ACUMEN PHARMACEUTICALS, published 2015):

Molecular target: T1, amyloid β-derived diffusible ligands (ADDLs), oligomers of Aβ1-42
T1 construct: number of chains not fixed; also called Aβ oligomers; Aβ1-42 oligomers
Assay: sandwich ELISA, 6E10 as capture and as detection antibody, Aβ oligomers titrated (log RFU axis)

B1: 6E10 (antibody, V domains shown)
VH: EVQLQQSGAELVKPGASVKLCTASGFNIKDTYIHWVKQRPEQGLEWIGRFDPVNVNTRYDSRFRGKATITSDASSNTAYLHLNSLTSEDTAVYYCSRSYYNGRRRFTYWGQGTLVTVSA
VL: DIVMTQSPSSLTVTAGEKVALTCKASQSLLSSGNQKNYLTWYQQKPGQPPKLLIYWASIRESGVPDRFTGSGSGTFFTLTISSVQAEDLAVYYCQNDYNYPFTFGSGTKLEIK
  EC50 (read off the curve): ~5 nM
